The text below walks through data of article PMC9039656.

The data set concerns the target T1, PAP1 R2R3-MYB domain (UniProt Q9FE25 1-178).
T1 sequence: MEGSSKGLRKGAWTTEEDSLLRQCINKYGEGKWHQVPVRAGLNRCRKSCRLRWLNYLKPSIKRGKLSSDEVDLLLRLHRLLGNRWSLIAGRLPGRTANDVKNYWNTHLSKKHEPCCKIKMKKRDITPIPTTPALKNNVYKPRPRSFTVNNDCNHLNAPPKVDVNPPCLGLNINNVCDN
The data set can be described thus: EMSA.

B1: NtPMT2 MRE-like probe (dsDNA)
DNA 1: CCAACAACCGCGCCAACAACCGCGCCAACAACCGCG
DNA 2: CGCGGTTGTTGGCGCGGTTGTTGGCGCGGTTGTTGG
On to B1, for which the binding result is listed as “no binding”.
